Measured values published in the Immune Epitope Database (IEDB).

Experiments:
HLA-A*02:01 [1] = test: IEDB peptide-MHC binding, cellular MHC/competitive/fluorescence; ≥ and ≤ were set here for values at or beyond the usual limits of such assays
HLA-A*02:02 = test: as above
HLA-A*02:03 = test: as above
HLA-A*02:06 = test: as above
HLA-A*68:02 [2] = test: as above
HLA-A*02:01 [3] = test: IEDB peptide-MHC binding, purified MHC/competitive/radioactivity; ≥ and ≤ were set here for values at or beyond the usual limits of such assays; details: source organism: Vaccinia virus WR
HLA-A*68:02 [4] = test: as above
[5] = source organism: Vaccinia virus WR
[6] = source organism: Influenza A virus
[7] = source organism: Mammarenavirus brazilense
[8] = source organism: Mammarenavirus choriomeningitidis

Sequence | IC50 (HLA-A*02:01 [1]; [5]) | IC50 (HLA-A*02:02; [5]) | IC50 (HLA-A*02:03; [5]) | IC50 (HLA-A*02:06; [5]) | IC50 (HLA-A*68:02 [2]; [5]) | IC50 (HLA-A*02:01 [3]) | also measured
SAEDNYLAKL | ≥ 70 µM | ≥ 70 µM | ≥ 70 µM | ≥ 70 µM | ≥ 70 µM |  | 
LTGNNTITT | 11.2 µM | 5.75 µM | 5.62 µM | 8.69 µM | 8.24 µM |  | 
ELEKCTSEI | 24.8 µM | 21.1 µM | 56 µM | 57.8 µM | 24.6 µM |  | 
PLKDVERLQM | 45.5 µM | 6.16 µM | 44 µM | 37.4 µM | ≥ 70 µM |  | 
NVRGSGMRILV |  |  |  |  |  |  | IC50 (HLA-A*02:01 [1]; [6]): 20.8 µM; IC50 (HLA-A*02:02; [6]): ≥ 70 µM; IC50 (HLA-A*02:03; [6]): 46.1 µM; IC50 (HLA-A*02:06; [6]): 54.7 µM; IC50 (HLA-A*68:02 [2]; [6]): 11.2 µM
LTNKKYRCMA | ≥ 70 µM | 34.8 µM | 5.4 µM | ≥ 70 µM | 16.6 µM |  | 
PVIVPDIKL | 52.8 µM | 41.2 µM | 32.7 µM | 51.4 µM | 29.9 µM |  | 
PTPKKMNIVT | ≥ 70 µM | 65.8 µM | 55.7 µM | ≥ 70 µM | ≥ 70 µM |  | 
PTRTWKVLSI | ≥ 70 µM | 41.9 µM | 15.1 µM | ≥ 70 µM | 42 µM |  | 
QTRSKAGLLV |  |  |  |  |  |  | IC50 (HLA-A*02:01 [1]; [6]): ≥ 70 µM; IC50 (HLA-A*02:02; [6]): ≥ 70 µM; IC50 (HLA-A*02:03; [6]): 22 µM; IC50 (HLA-A*02:06; [6]): ≥ 70 µM; IC50 (HLA-A*68:02 [2]; [6]): 50.9 µM
DIMLPESDL | 12.9 µM | 18.5 µM | 35.8 µM | 31.6 µM | 13.4 µM |  | 
NVDVGCLLT | 47.3 µM | 9.85 µM | 14 µM | 64.9 µM | ≥ 70 µM |  | 
ALSYSAGA |  |  |  |  |  |  | IC50 (HLA-A*02:01 [1]; [6]): 39.3 µM; IC50 (HLA-A*02:02; [6]): 16.9 µM; IC50 (HLA-A*02:03; [6]): 10.7 µM; IC50 (HLA-A*02:06; [6]): ≥ 70 µM; IC50 (HLA-A*68:02 [2]; [6]): ≥ 70 µM
CTEETKRNIA | ≥ 70 µM | ≥ 70 µM | 50.1 µM | ≥ 70 µM | 15.2 µM |  | 
DVGCLLTDT | ≥ 70 µM | ≥ 70 µM | 65.4 µM | ≥ 70 µM | ≥ 70 µM |  | 
ICFWSTLFFT |  |  |  |  |  |  | IC50 (HLA-A*02:01 [1]; [7]): 11.9 µM; IC50 (HLA-A*02:02; [7]): 33.2 µM; IC50 (HLA-A*02:03; [7]): 35.1 µM; IC50 (HLA-A*02:06; [7]): 34.9 µM; IC50 (HLA-A*68:02 [2]; [7]): 47.6 µM
ITGNKVKTEL | ≥ 70 µM | ≥ 70 µM | ≥ 70 µM | ≥ 70 µM | ≥ 70 µM |  | 
LLDEPLSPDT |  | 8.51 µM | 10.1 µM | 7.84 µM | ≥ 70 µM | 3.6 µM | 
SILNNPVDT |  | 47.1 µM | 30.6 µM | 14.2 µM | 46.8 µM | 4.63 µM | 
IAVFDSKLI |  | 7.85 µM | 11.9 µM | 11.9 µM | 6.79 µM | 3.85 µM | 
IMECSRMLDT |  | 5.24 µM | 7.2 µM | ≥ 70 µM | ≥ 70 µM | 3.1 µM | 
DMLLNVQTL |  | 7.4 µM | 5.07 µM | 13.4 µM | 5.05 µM | 3.15 µM | 
PLTLLIKTL |  | 5.27 µM | 6.15 µM | 8.1 µM | 6.22 µM | 4.78 µM | 
QQNNSFIIST |  | 7 µM | 5.04 µM | 5.71 µM | 8.51 µM | 1.23 µM | 
QTLISLNSM |  | 19.4 µM | 39.3 µM | 7.5 µM | 19.4 µM | 4.82 µM | 
HNASDFYGL |  |  |  |  |  |  | IC50 (HLA-A*02:01 [1]; [8]): 15.5 µM; IC50 (HLA-A*02:02; [8]): 6.51 µM; IC50 (HLA-A*02:03; [8]): ≥ 70 µM; IC50 (HLA-A*02:06; [8]): 21.8 µM; IC50 (HLA-A*68:02 [4]; [8]): 0.147 µM
IAIFNNRNL | 38.5 µM | 9.23 µM | 10.5 µM | 13.5 µM |  |  | IC50 (HLA-A*68:02 [4]; [5]): 0.262 µM
MAFILGIII | 5.87 µM | 9.54 µM | 9.76 µM | 32.5 µM |  |  | IC50 (HLA-A*68:02 [4]; [5]): 4.93 µM
VVIVENDNVI |  | 14.7 µM | 10.2 µM | 10.8 µM | 22.5 µM | 2.83 µM | 
